Source: PMC12177922, “In Vivo Ribosome-Amplified MetaBOlism, RAMBO, Effect Observed by Real Time Pulse Chase, RTPC, NMR Spectroscopy” (Biochemistry, 2025)

Legend:
[1] = biological target: Pyruvate kinase I from E. coli, PYK-F (E. coli) (UniProt P0AD61)
[2] = biological target: Pyruvate kinase I from E. coli, PYK-F (E. coli) (UniProt P0AD61); assay: ribosome titration of enzyme activity (direct 1H NMR kinetic assay); 120 nM PYK-F, ribosomes titrated up to 8 uM; change of initial velocity (pyruvate methyl peak) at 2 mM PEP and 4 mM ADP; 10 mM sodium phosphate pH 7.5, 50 mM KCl, 10 mM MgCl2, 10 °C; one site-specific binding model …; saturation not reached
[3] = biological target: Pyruvate kinase I from E. coli, PYK-F (E. coli) (UniProt P0AD61); remark: listed apart in the source
[4] = biological target: Pyruvate kinase I from E. coli, PYK-F (E. coli) (UniProt P0AD61); remark: listed apart in the source

PYK-F activity (initial velocity, NMR kinetic assay) with 3 μM ribosomes against none [1]: 35% | Kd [2]: 10 µM | kcat of PYK-F (ADP saturation curve) with 2 μM ribosomes against none [3]: 10% | decrease in sum of the influx rates of lactate, ethanol and acetate in living E. coli BL21(DE3) (RTPC-NMR), 2x chloramphenicol against none [4]: 32%
Substance: Intact 70S ribosomes from E. coli strain MRE600 (from UniProt P60723 1-201; P0AG55 1-177; P0A7R1 1-149; P0AA10 1-142; P0AG44 1-127; P0AG48 1-103; P61175 1-110; P68919 1-94; P0A7L8 1-85; P0A7M9 1-70; P0AG67 1-557; P0A7V3 1-233; P0A7X3 1-130; P0A7S3 1-124; P0A7U7 1-87) (complex)
